According to publication PMC10484683:
Like-named read-outs stand apart in the source and are kept apart here.

What was measured:
CTCF ZF1-ZF7 [1] = molecular target: T1, CTCF ZF1-ZF7 (Homo sapiens, UniProt P49711 263-465); assay: X-ray crystallography
T1 sequence: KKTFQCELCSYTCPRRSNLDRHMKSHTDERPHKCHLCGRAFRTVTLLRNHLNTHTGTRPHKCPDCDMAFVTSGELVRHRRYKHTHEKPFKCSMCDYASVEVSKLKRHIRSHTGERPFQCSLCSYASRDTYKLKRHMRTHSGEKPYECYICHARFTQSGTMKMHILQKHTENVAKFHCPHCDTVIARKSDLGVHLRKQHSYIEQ

CTCF ZF3-ZF11 [2] = molecular target: T2, CTCF ZF3-ZF11 (Homo sapiens, UniProt P49711 322-577); assay: X-ray crystallography
T2 sequence: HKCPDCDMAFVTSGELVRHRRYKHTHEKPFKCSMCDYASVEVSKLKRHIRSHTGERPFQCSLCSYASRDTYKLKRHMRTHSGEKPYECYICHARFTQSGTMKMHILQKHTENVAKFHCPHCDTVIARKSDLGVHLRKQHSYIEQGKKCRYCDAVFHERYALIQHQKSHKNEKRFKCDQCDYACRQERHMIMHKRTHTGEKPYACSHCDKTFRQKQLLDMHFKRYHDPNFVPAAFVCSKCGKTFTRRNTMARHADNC

CTCF ZF1-ZF7 [3] = molecular target: T1, CTCF ZF1-ZF7; assay: fluorescence polarization
CTCF ZF3-ZF11 [4] = molecular target: T2, CTCF ZF3-ZF11; assay: X-ray crystallography; remark: listed apart in the source

B1: 23-bp (dsDNA)
DNA 1: GCCAGCAGGGGGCGCTAGTGAGG
DNA 2: CCTCACTAGCGCCCCCTGCTGGC
B1: binds (CTCF ZF1-ZF7 [1]).

B2: 19-bp (dsDNA)
DNA 1: TGCGCCCCCTGCTGGTCCT
DNA 2: AGGACCAGCAGGGGGCGCA
B2: binds (CTCF ZF3-ZF11 [2]).

B3: FP oligo X:Y=A:T (dsDNA)
DNA 1: AGGACCAGCAGGGGACGCA
DNA 2: TGCGTCCCCTGCTGGTCCT
In the case of B3, the binding signal (CTCF ZF1-ZF7 [3]) is reported as 7 fold reduced affinity vs G:C.

B4: 35-4 (dsDNA)
DNA 1: GTGCAGTACCACATTTAACCAGCAGGGGGCGCTAA
DNA 2: TTAGCGCCCCCTGCTGGTTAAATGTGGTACTGCAC
B4: binds (CTCF ZF3-ZF11 [4]).
